Assay results taken from publication PMC7667676.

Target: endogenous phosphorylated p38 (P-p38) (human (endogenous in Huh7.5.1)) (UniProt Q16539)
Sequence of UniProt Q16539 (Q16539 whole entry): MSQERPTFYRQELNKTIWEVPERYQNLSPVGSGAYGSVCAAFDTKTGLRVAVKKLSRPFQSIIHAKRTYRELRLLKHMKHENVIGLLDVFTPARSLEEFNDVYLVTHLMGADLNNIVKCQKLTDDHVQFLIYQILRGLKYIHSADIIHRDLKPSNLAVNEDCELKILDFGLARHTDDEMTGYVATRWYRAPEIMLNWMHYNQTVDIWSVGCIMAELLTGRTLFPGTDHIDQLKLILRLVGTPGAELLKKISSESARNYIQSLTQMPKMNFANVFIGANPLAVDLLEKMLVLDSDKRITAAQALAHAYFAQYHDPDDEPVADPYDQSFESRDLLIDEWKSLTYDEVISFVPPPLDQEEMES

“HCV core protein N-terminal peptide (CN-peptide)” gave a reduction of intracellular HCV RNA (qRT-PCR) in JFH1-infected primary human hepatocytes incubated with the CN-peptide for 72 h; the pair blocked is p38α and the HCV core protein (m8 and m9) of 91%.
